Experiments:
[1] = substrate: NC(=O)c1ccc[n+]([C@@H]2O[C@H](COP(=O)(O)O)[C@@H](O)[C@H]2O)c1; test: C18-HPLC of NAD formed, nonlinear fit; type: biochemical, Mus musculus; conditions: co-substrate ATP, NMN 5–100 µM, HEPES/KOH pH 7.5, MgCl2, 37°C
purified protein = substrate: Nc1ncnc2c1ncn2[C@@H]1O[C@H](COP(=O)(O)OP(=O)(O)OP(=O)(O)O)[C@@H](O)[C@H]1O; test: purified protein; conditions: co-substrate NMN, ATP 25–175 µM, HEPES/KOH pH 7.5, MgCl2, 37°C
[2] = substrate: Nc1ncnc2c1ncn2[C@@H]1O[C@H](COP(=O)(O)OP(=O)(O)OP(=O)(O)O)[C@@H](O)[C@H]1O; test: C18-HPLC of NAD formed, nonlinear fit; type: biochemical, Mus musculus; conditions: co-substrate NMN, ATP 25–175 µM, HEPES/KOH pH 7.5, MgCl2, 37°C
Excerpt: (§1) C18-HPLC of NAD formed, nonlinear fit on mNMNAT1

[3] = substrate: NC(=O)c1ccc[n+]([C@@H]2O[C@H](COP(=O)(O)O)[C@@H](O)[C@H]2O)c1; test: C18-HPLC of NAD formed, nonlinear fit; type: biochemical, Mus musculus; conditions: co-substrate ATP, NMN 5–100 µM, HEPES/KOH pH 7.5, MgCl2, 37°C; remark: listed apart in the source
Excerpt: as §1

[4] = substrate: Nc1ncnc2c1ncn2[C@@H]1O[C@H](COP(=O)(O)OP(=O)(O)OP(=O)(O)O)[C@@H](O)[C@H]1O; test: C18-HPLC of NAD formed, nonlinear fit; type: biochemical, Mus musculus; conditions: co-substrate NMN, ATP 25–175 µM, HEPES/KOH pH 7.5, MgCl2, 37°C; remark: listed apart in the source
Excerpt: (§2) C18-HPLC of NAD formed, nonlinear fit on mNMNAT3

[5] = substrate: NC(=O)c1ccc[n+]([C@@H]2O[C@H](COP(=O)(O)O)[C@@H](O)[C@H]2O)c1; test: C18-HPLC of NAD formed, nonlinear fit; type: biochemical, Mus musculus; conditions: co-substrate ATP, NMN 5–100 µM, HEPES/KOH pH 7.5, MgCl2, 37°C; remark: listed apart in the source
Excerpt: as §2

B1: mNMNAT2 (Mus musculus) (protein)
chain: MTETTKTHVILLACGSFNPITKGHIQMFERARDYLHKTGRFIVIGGIVSPVHDSYGKQGLVSSRHRLIMCQLAVQNSDWIRVDPWECYQDTWQTTCSVLEHHRDLMKRVTGCILSNVNTPSMTPVIGQPQHENTQPIYQNSNVPTKPTAAKILGKVGESLSRICCVRPPVERFTFVDENANLGTVMRYEEIELRILLLCGSDLLESFCIPGLWNEADMEVIVGDFGIVVVPRDAADTDRIMNHSSILRKYKNNIMVVKDDINHPMSVVSSTKSRLALQHGDGHVVDYLSQPVIDYILKSQLYINASG
notes: predicted mass 36668 Da
B1 gave a Km [1] of 38.5 ± 13.5 µM, a kcat [1] of 2.87 ± 0.5 s⁻¹ and a kcat/Km [1] of 70000 M⁻¹ s⁻¹. For the same protein, the Km (purified protein) was 82.0 ± 15.1 µM, the kcat (purified protein) was 2.33 s⁻¹ and the kcat/Km (purified protein) was 30000 M⁻¹ s⁻¹.

B2: mNMNAT1 (Mus musculus) (protein)
chain: MDSSKKTEVVLLACGSFNPITNMHLRLFELAKDYMHATGKYSVIKGIISPVGDAYKKKGLIPAHHRIIMAELATKNSHWVEVDTWESLQKEWVETVKVLRYHQEKLATGSCSYPQSSPALEKPGRKRKWADQKQDSSPQKPQEPKPTGVPKVKLLCGADLLESFSVPNLWKMEDITQIVANFGLICITRAGSDAQKFIYESDVLWRHQSNIHLVNEWITNDISSTKIRRALRRGQSIRYLVPDLVQEYIEKHELYNTESEGRNAGVTLAPLQRNAAEAKHNHSTL
notes: predicted mass 34518 Da
B2 showed a Km [2] of 33.5 ± 5.1 µM, a kcat [2] of 15 ± 0.7 s⁻¹ and a kcat/Km [2] of 450000 M⁻¹ s⁻¹. It also gave a Km [3] of 25.2 ± 5.6 µM, a kcat [3] of 15.5 ± 1.3 s⁻¹ and a kcat/Km [3] of 610000 M⁻¹ s⁻¹.

B3: mNMNAT3 (Mus musculus) (protein)
chain: MKNRIPVVLLACGSFNPITNMHLRLFEVARDHLHQTGRYQVIEGIISPVNDSYGKKDLVASHHRVAMARLALQTSDWIRVDPWESEQAQWMETVKVLRHHHRELLRSSAQMDGPDPSKTPSASAALPELKLLCGADVLKTFQTPNLWKDTHIQEIVEKFGLVCVSRSGHDPERYISDSPILQQFQHNIHLAREPVLNEISATYVRKALGQGQSVKYLLPEAVITYIRDQGLYINDGSWKGKGKTG
notes: predicted mass 29866 Da
Protein B3 has a Km [4] of 39.0 ± 5.9 µM, a kcat [4] of 0.74 ± 0.04 s⁻¹ and a kcat/Km [4] of 20000 M⁻¹ s⁻¹. The Km [5] was 117.6 ± 4.6 µM, the kcat [5] was 0.75 ± 0.02 s⁻¹ and the kcat/Km [5] was 10000 M⁻¹ s⁻¹.
